Kd data for 7 sequences are collected here from patent US8852954.

The target of the series is mouse IgG1 (subtype 1 IgG antibody) (Mus musculus) (UniProt P01868). The series can be described thus: SPR. Particulars: RNA with 5'-dA5 (1-5).

For orientation: Kd means the equilibrium constant for the complex coming apart. In turn, “AAAAACGCUGAAGAGAAGACGGAAGGAGACGAAGCGT [MIG-m042]” registered a Kd (LNA at C6 G7 C35 G36, 2'-OMe U9, 3'-dT37, BIACORE 3000, 1:1 Langmuir) of under 0.001 nM. “AAAAACGCUGAAGAGAAGACGGAAGGAGACGAAGCGT [MIG-m034]”: the dissociation constant (Kd) was under 0.001 nM (LNA at C6 G7 C35 G36, 3'-dT37, BIACORE 3000, 1:1 Langmuir) and 0.634 nM (LNA at C6 G7 C35 G36, 3'-dT37, second measurement (Example 3), differs from Table 2). “AAAAAGCGCUGAAGAGAAGACGGAAGGAGACGAAGCGC [MIG-m041]” yielded a Kd (DNA at 6-9 and 35-38, 2'-OMe U10, BIACORE 3000, 1:1 Langmuir) of under 0.001 nM. In the case of “AAAAAGCGCUGAAGAGAAGACGGAAGGAGACGAAGCGC [MIG-m036]”, under “DNA at G6 C7 G37 C38, BIACORE 3000, 1:1 Langmuir”, the Kd turned out to be 5.48 nM. For the sequence “AAAAAGCUGAAGAGAAGACGGAAGGAGACGAAGCT [MIG-m035]”, under “LNA at G6 C7 G33 C34, 3'-dT35, BIACORE 3000, 1:1 Langmuir”, the dissociation constant (Kd) is under 0.001 nM.

Regarding “AAAAAGCGCUGAAGAGAAGACGGAAGGAGACGAAGCGC [MIG-m037]”, the Kd (DNA at 6-9 and 35-38, BIACORE 3000, 1:1 Langmuir) was determined as 1.7 nM. This lies in the single-digit nanomolar range. For the setting “2'-OMe U10, BIACORE 3000, 1:1 Langmuir”, “AAAAAGCGCUGAAGAGAAGACGGAAGGAGACGAAGCGC [MIG-m040]” returned a Kd of 0.411 nM.
